Assay results: the supplement of paper PMC9170038

Each sequence was assayed on MS2 coat protein (assay: apparent KD of MS2 coat protein; higher = weaker reporter binding). Settings: Eterna round: R107; input ligand: arginine 13.2 mM.
Description: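 RNA-MaP round R107: designed RNA switches with theophylline, tryptophan, arginine or FMN aptamers are transcribed on-chip within common flanks. They are titrated with SNAP-549-labelled MS2 coat protein in RNA-MaP buffer (100 mM Tris pH 7.5, 80 mM KCl, 4 mM MgCl2), without ligand or with the indicated ligand. Median apparent KD per design.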
“UGUGUCGUCUGAAGGAGCGGCUCUUGAUCCUCGUGAGACAUGAGGAUCACCCAUGUCUCGAGCCAGGUAGGUCGCAGGCGGCACA [#26 Exclusion - Arginine B]” was tested, and the “apparent KD of MS2 coat protein” value was 7.08 nM. With “ACAUUUAACUGAAGGAGCGUGAUAAACAUGAGGAUCACCCAUGUACCAAAGAUUUUCAGAUCACAGGUAGGUCGCAGACUAAUGA [JR_ExcArginiB_Sub015]” the “apparent KD of MS2 coat protein” value was 12.8 nM. In the case of “GAUUACAUGAGGAUCACCCAUGUAACUGAAGGAGCGGUAAUAAAGCCAGGUAGGUCGCAGAACAACAUGUGGUUCAUCCAUGUAA [#14 Exclusion - Arginine A]”, the “apparent KD of MS2 coat protein” value is reported as 23.2 nM. In the case of “ACGUCCGGAUUGAUCGUGGGCAUGGUCGAUACCAGUAUUUUAAUCUACCCUUGGCAGCGACAUGAGGAUCACCCAUGUGCGAUGA [XTheo A #19]”, the “apparent KD of MS2 coat protein” value is reported as 16.1 nM. For “GCGACCCUGAGAUCCUGCGUAACGUGAACACGAGGACCGGUACGGCCGCCACUCGAGAGAACAUGAGGAUCACCCAUGUCUGAGC [e-trypA-0(N)]”, the “apparent KD of MS2 coat protein” value was 16.2 nM. For “AAUGGGCGAGUAGAGCAUAAUUUCCACUCCCGAGGACCGGUACGGCCGCCACUCGUUCGCUCACAUGAGGAUCACCCAUGUGGUC [theeternabot_exclusion_MS2_Trp_A_17]”, the “apparent KD of MS2 coat protein” value was 24.7 nM. “UAUAUUGUGAUGGAUACCAGCAGAGAAAACGUUUAUCCUAACAUGAGGAUCACCCAUGUAUGCCCUUGGCAGCUGUUGUGGUAUA [8.P]” was tested, and the “apparent KD of MS2 coat protein” value was 34.7 nM. For “UUUAAAAUCAGAAGGAGCGUGAUAAACAUGAGGAUCACCCAUGUCGAAAAUUUAAUAUAAUCACAGGUAGGUCGCUGUAAUAUUU [Same State - Ariginine B]”, the “apparent KD of MS2 coat protein” value was 14.2 nM. For “AAUUCCUAACAUGAGGAUCACCCAUGUGAAGGAGCGCCGAAUAAGGCAGGUAGGUCGCACAUGGAACCGCUACGAAAGUAGCAAA”, the “apparent KD of MS2 coat protein” value was 22.5 nM. With “UGGUACAUGGCGGCCGCCACUUCACGUAAAAUAAAAACUUGAGGAUCACCCAAGUAAUAAGUUGGGAGGACCGGGUCAUGUACCU” the “apparent KD of MS2 coat protein” value was 18.4 nM. “UAACAUGAGGAUCACCCAUGUUUAGAAGAACGAGGACCGGUACGGCCGCCACUCGAAAAGUGGAAGAAAAGAGGGAUAGAAUGAU [Same State Trp A GF1]” was tested, and the “apparent KD of MS2 coat protein” value was 14 nM. For “AUCAUAAUAGACUCGUUAGAUUAUAUGGAACGAGGACCGGUACGGCCGCCACUCGUGAUGUACAUGAGGAUCACCCAUGUUAGCU [JR_Nu_SSTryptoA_Sub025]”, the “apparent KD of MS2 coat protein” value was 15.2 nM. With “ACCGCAUCCGUAUAGGAUGCGGCCCAUGAAGGAGCGUGGGAAACCACAGGUAGGUCGCAUGACAUGAGGAUCACCCAUGUUUAUU [Matrix]” the “apparent KD of MS2 coat protein” value was 27.8 nM. “CCCAACAUGAGGAUCACCCAUGUUCCGGGUCGAGGACCGGUACGGCCGCCACUCGGUAUGAUGGGUGUGCAGCGUAUCUGCACCA [theeternabot_sameState_MS2_Trp_A_22]” was tested, and the “apparent KD of MS2 coat protein” value was 30.9 nM. With “CACGCACGAUCGGCCGCCACUCAUGUAGCUUACAUGAGGAUCACCCAUGUAUUUUCUUUCUUAUAGAGGACCGGGAUCGUGCGUG [#04 Same State - Tryptophan B]” the “apparent KD of MS2 coat protein” value was 21 nM. “ACAUGAGGAUCACCCAUGUCUGCCUCGGAUACCAGCGGAAGAAAACGCCCUUGGCAGCCGAACAUGAGGAUCACCCAUGUAGGCU [Same State Theophylline A GF30]” was tested, and the “apparent KD of MS2 coat protein” value was 28.8 nM. “AGCUCGACUCGCAGCUGGAUGCCCGCUUGCCGAGGACCGGUACGGCCGCCACUCGUCACUCGACAUGAGGAUCACCCAUGUGAUA [theeternabot_exclusion_MS2_Trp_A_32]” was tested, and the “apparent KD of MS2 coat protein” value was 36.3 nM. “CCGUUUUAUGGCGACAUAGGGCGGACUGAAGGAGCGGUGAAUAAGCCAGGUAGGUCGCAGAGAUCCACAUGAGGAUCACCCAUGU [!0.aD]” was tested, and the “apparent KD of MS2 coat protein” value was 322 nM. “GGUUGAUAUAUAUAUAUAUUGAUUACUGAAGGAGCGGGAAAUAACCCAGGUAGGUCGCAGAGAUCCACAUGAGGAUCACCCAUGU [!0.F]” was tested, and the “apparent KD of MS2 coat protein” value was 31.9 nM. With “ACACGGAAUGAUGGAUCACCUCGUUAAUAACGAGGACCGGUACGGCCGCCACUCGAAAACCGUGACCUGUACGAAAAGUGCAGGA [TrypAS 15 #SwitchBubble #HomemadeMS2 #StaticStrem #MS2Early]” the “apparent KD of MS2 coat protein” value was 27.3 nM. In the case of “AUUCAUAACUGAAGGAGCGUGAUAUAAAUUUUUACAUGAGGAUCACCCAUGUUUCAUAGAUCACAGGUAGGUCGCAGAUUCUCAU [JR_SSArginiB_Sub011]”, the “apparent KD of MS2 coat protein” value is reported as 36.8 nM. With “UCGAUGGUACCCGAUACCAGCAAUACAUCACAGACCUGAUACAUGAGGAUCACCCAUGUGUGCCCUUGGCAGCGGGUCCUGAAAA [theeternabot_exclusion_MS2_Theo_B_25]” the “apparent KD of MS2 coat protein” value was 17.5 nM. “CACAGUGCGAAUUUGAAUUCGCACGAUCCUCGAGGACCGGUACGGCCGCCACUCGCGCGGGUCGUACAUGAGGAUCACCCAUGUC [Quermavebe]” was tested, and the “apparent KD of MS2 coat protein” value was 25 nM. With “UGUAUGUGAUGGGAUACCAGACCAGCUGGUGAUACAUGAGGAUCACCCAUGUAAAUUUGGGUCCCUUGGCAGCCCAUCGCAUACU [SSTheo B #25]” the “apparent KD of MS2 coat protein” value was 32.4 nM. “UCGUGUAUAACGGAUACCAGUGAGAAGGAUACAUGAGGAUCACCCAUGUGAGUUGAUGUACACCCUUGGCAGCUGUAUAUAUCUA [llpmullin]” was tested, and the “apparent KD of MS2 coat protein” value was 58.3 nM.

Same assay, conditions: Eterna round: R107; input ligand: none
With “UGUGUCGUCUGAAGGAGCGGCUCUUGAUCCUCGUGAGACAUGAGGAUCACCCAUGUCUCGAGCCAGGUAGGUCGCAGGCGGCACA [#26 Exclusion - Arginine B]” the “apparent KD of MS2 coat protein” value was 16.2 nM. For “ACAUUUAACUGAAGGAGCGUGAUAAACAUGAGGAUCACCCAUGUACCAAAGAUUUUCAGAUCACAGGUAGGUCGCAGACUAAUGA [JR_ExcArginiB_Sub015]”, the “apparent KD of MS2 coat protein” value was 11.7 nM. For “GAUUACAUGAGGAUCACCCAUGUAACUGAAGGAGCGGUAAUAAAGCCAGGUAGGUCGCAGAACAACAUGUGGUUCAUCCAUGUAA [#14 Exclusion - Arginine A]”, the “apparent KD of MS2 coat protein” value was 20.1 nM. With “UUUAAAAUCAGAAGGAGCGUGAUAAACAUGAGGAUCACCCAUGUCGAAAAUUUAAUAUAAUCACAGGUAGGUCGCUGUAAUAUUU [Same State - Ariginine B]” the “apparent KD of MS2 coat protein” value was 14 nM. For “AAUUCCUAACAUGAGGAUCACCCAUGUGAAGGAGCGCCGAAUAAGGCAGGUAGGUCGCACAUGGAACCGCUACGAAAGUAGCAAA”, the “apparent KD of MS2 coat protein” value was 23.5 nM. For “ACCGCAUCCGUAUAGGAUGCGGCCCAUGAAGGAGCGUGGGAAACCACAGGUAGGUCGCAUGACAUGAGGAUCACCCAUGUUUAUU [Matrix]”, the “apparent KD of MS2 coat protein” value was 44.2 nM. “CCGUUUUAUGGCGACAUAGGGCGGACUGAAGGAGCGGUGAAUAAGCCAGGUAGGUCGCAGAGAUCCACAUGAGGAUCACCCAUGU [!0.aD]” was tested, and the “apparent KD of MS2 coat protein” value was 52.6 nM. For “GGUUGAUAUAUAUAUAUAUUGAUUACUGAAGGAGCGGGAAAUAACCCAGGUAGGUCGCAGAGAUCCACAUGAGGAUCACCCAUGU [!0.F]”, the “apparent KD of MS2 coat protein” value was 42.7 nM. For “ACACGGAAUGAUGGAUCACCUCGUUAAUAACGAGGACCGGUACGGCCGCCACUCGAAAACCGUGACCUGUACGAAAAGUGCAGGA [TrypAS 15 #SwitchBubble #HomemadeMS2 #StaticStrem #MS2Early]”, the “apparent KD of MS2 coat protein” value was 33.6 nM. “AUUCAUAACUGAAGGAGCGUGAUAUAAAUUUUUACAUGAGGAUCACCCAUGUUUCAUAGAUCACAGGUAGGUCGCAGAUUCUCAU [JR_SSArginiB_Sub011]” was tested, and the “apparent KD of MS2 coat protein” value was 45.2 nM. For “UGUAUGUGAUGGGAUACCAGACCAGCUGGUGAUACAUGAGGAUCACCCAUGUAAAUUUGGGUCCCUUGGCAGCCCAUCGCAUACU [SSTheo B #25]”, the “apparent KD of MS2 coat protein” value was 22 nM.

Same assay, conditions: Eterna round: R107; input ligand: theophylline 20 uM
With “UGUGUCGUCUGAAGGAGCGGCUCUUGAUCCUCGUGAGACAUGAGGAUCACCCAUGUCUCGAGCCAGGUAGGUCGCAGGCGGCACA [#26 Exclusion - Arginine B]” the “apparent KD of MS2 coat protein” value was 12.8 nM. “ACAUUUAACUGAAGGAGCGUGAUAAACAUGAGGAUCACCCAUGUACCAAAGAUUUUCAGAUCACAGGUAGGUCGCAGACUAAUGA [JR_ExcArginiB_Sub015]” was tested, and the “apparent KD of MS2 coat protein” value was 16.7 nM. For “GAUUACAUGAGGAUCACCCAUGUAACUGAAGGAGCGGUAAUAAAGCCAGGUAGGUCGCAGAACAACAUGUGGUUCAUCCAUGUAA [#14 Exclusion - Arginine A]”, the “apparent KD of MS2 coat protein” value was 35 nM.
